Test system: ovalbumin
Assay: Subcutaneous immunization with ovalbumin antigen: specific serum immunoglobulins (ELISA)
Format: in vivo, BALB/c mice
Settings: s.c. injections days 0 and 14, ovalbumin 50 μg, adjuvant 50 μg per injection, ± SD
Protocol: To this end, 50 BALB/c mice (females, aged 8 weeks at the beginning of treatment) were divided into 5 groups as follows:
Antigen: An ovalbumin stock solution is prepared at a concentration of 0.5 mg/ml in 0.9% NaCl.
The negative control consists of a 0.9% NaCl solution without antigen.
Antigen-Adjuvant mixture: Adjuvants are allowed to stand for 20 minutes at 37° C. before vortex treatment for 3 minutes. Then the antigen and (0.9%) NaCl are added as specified in the above Table, and the antigen/adjuvant mixture is vortexed briefly before placing it on a rotary stirrer for 15 minutes at room temperature, then the whole mixture is vortexed for 3 minutes.
Immunization regimen: Injections are scheduelled on days 0 and 14. The mixtures stated in the preceeding table are administered by subcutaeous route (75 μl on the side, 150 μl in total per animal). Blood sampling is scheduelled on days 14 and 28 (orbital puncture).
Assay for anti-ovalbumin immunoglobulins: The following serum Immunolglobulins which are specifically directed against ovalbumin are assayed in duplicate by ELISA: IgG1, IgG2a, and IgM. Briefly stated, microtiter plates (NUNC Immunoplate, Roskilde, DK) are incubated (overnight coating) at 40C together with 100 μl ovalbumin (0.5 μg) in bicarbonate buffer pH 9.6). After washing with 0.5% Tween-20 (Merck Hohenbrunn, D), sera are diluted 50-, 200- and 800-fold (diluting solution: phosphate buffered saline (PBS)+1% bovine serum albumin (BSA, Sigma, St. Louis, Mo., USA)+0.02% Tween-20)). 100 μl of each dilute serum sample are added to the wells. Incubation lasts 45 minutes at 37° C.
After a second washing step, IgG1, IgG2a and IgM specifically directed to ovalbumin are incubated for 30 minutes at 37° C. together with 100 μl of anti-IgG1 antibodies (anti-mouse rat antibody)-peroxydase conjugate (Serotec, Oxford, UK), IgG2a-peroxydase conjugate (Pharmingen, San Diego, Calif., USA) and IgM-biotin conjugate (Pharmingen, San Diego, Calif., USA), diluted beforehand in PBS/BSA/Tween buffer (250-, 1000-, 500-fold dilutions, respectively). For IgM, after an extra washing step, a 3rd incubation step is required (30 min. at 37° C.) with a 1:100 dilute solution of streptavidin-peroxydase conjugate (Dako, Glostrup, DK).
After the washing step, 100 μl of a phenylene 1,2-diamine solution (OPD, Merck, Darmstadt, GFR) are added to detect peroxydase-coupled anti-IgG1 and anti-IgG2 secondary antibodies (whereas for IgM, the reagent being used is 3′, 3′, 5′,5′-tetramethylbenzidine (TMB, Sigma, St. Louis, Mo., USA). After a 20 minute incubation period at room temperature, the reaction is stopped by adding 100 μl of 2N H2SO4. Absorbance values are read at 490 nm with a Bio-Rad 3550 model plate reader
Results of each reading at 490 nm are given in arbitrary units (A.U.) per ml. This is achieved by comparing each sample with a standard prepared from different dilutions of a sample pool collected from group B at day 28 (animals injected with ovalbumin alone). As clearly understood by this term, the sample pool diluted 50-fold is at a concentration of 1000 A.U./ml. Individual results are then corrected for the corresponding dilution factor (50, 200, or 800 times). Only the mean values of each group and the standard deviation (SD) are herein reported.

B1: ova: ovalbumin antigen (Fluka Chemie), injected alone (protein, UniProt P01012 2-386, looked up)
Ovalbumin: GSIGAASMEFCFDVFKELKVHHANENIFYCPIAIMSALAMVYLGAKDSTRTQINKVVRFDKLPGFGDSIEAQCGTSVNVHSSLRDILNQITKPNDVYSFSLASRLYAEERYPILPEYLQCVKELYRGGLEPINFQTAADQARELINSWVESQTNGIIRNVLQPSSVDSQTAMVLVNAIVFKGLWEKAFKDEDTQAMPFRVTEQESKPVQMMYQIGLFRVASMASEKMKILELPFASGTMSMLVLLPDEVSGLEQLESIINFEKLTEWTSSNVMEERKIKVYLPRMKMEEKYNLTSVLMAMGITDVFSSSANLSGISSAESLKISQAVHAAHAEINEAGREVVGSAEAGVDAASVSEEFRADHPFLFCIKHIATNAVLFFGRCVSP
- Immunoglobulins specifically raised against ovalbumin of IgG1 subclass (Day 14): 728 ± 589 Arbitrary units/ml
- Immunoglobulins specifically raised against ovalbumin of IgG2a subclass (Day 14): 5201 ± 1880 Arbitrary units/ml
- Immunoglobulins specifically raised against ovalbumin of IgM subclass (Day 14): 19423 ± 13778 Arbitrary units/ml
- Immunoglobulins specifically raised against ovalbumin of IgG1 subclass (Day 28): 47743 ± 46294 Arbitrary units/ml
- Immunoglobulins specifically raised against ovalbumin of IgG2a subclass (Day 28): 73162 ± 107954 Arbitrary units/ml
- Immunoglobulins specifically raised against ovalbumin of IgM subclass (Day 28): 47998 ± 34035 Arbitrary units/ml

Source: patent US7157092B1, “Acyl pseudodipeptides, preparation method and pharmaceutical compositions containing same” (Om Pharma, priority 1998, dated 2007)
